# According to paper PMC2654718:
# Tests used:
# MBP-VDR-LBDmt (human) [1] = experiment: pull-down
# MBP-VDR-LBDmt (human) [2] = experiment: ITC
peptide concentration at which inhibition of SRC2-VDR binding was observed (MBP-VDR-LBDmt (human) [1]) [µM],Kd (MBP-VDR-LBDmt (human) [2]) [nM],dH (MBP-VDR-LBDmt (human) [2]) [kcal/mol],stoichiometry N (MBP-VDR-LBDmt (human) [2]),Substance
> 50,–,–,–,"SRC3-1 peptide, unlabeled"
–,174,-6.7,1.02,"SRC2-3 peptide, unlabeled"
–,285,-2.2,0.93,"SRC2-3 peptide, Texas Red labeled"
